{"source": "paper PMC12622518", "about": "(Advanced Science, 2025)", "molecules": {"B1": {"name": "GntR family transcriptional regulator CsiR (natural protein, P. putida KT2440, UniProt Q88IU1 1-231, looked up)", "chain": "MEALAPRQNSAFSGYERLKKDIIRGVFKPGEKLLMSTLKERYDLGVGPLREALSQLVAEHLVNAISQKGYRVAPMSLDEMNDIYDARANLEAMIIALAIERGDDAWEASVLAHSHTLAKVVEVKTREQRLDVWDERHKAFHTAIASGCGSKHLLQARTYLFDQAERYRHLWLTQTVFSEEALALKRQEHAALVEVILARDAKTASAMMRSHLMTPVPIIAQIMHAEGIGAR", "notes": "CsiR, GntR family transcriptional regulator of the csiD-lhgO operon, Pseudomonas putida KT2440; csiR gene cloned into pETDuet-1 (pETDuet-CsiR); also called His6-tagged CsiR"}, "B2": {"name": "genetically encoded glutarate fluorescent biosensor Glusor (other)", "chain": "LDEMNDIYDARANLEAMIIALAIERGDDAWEASVLAHSHTLAKVVEVKTREQRLDVWDERHKAFHTAIASGCGSKHLLQARTYLFDQAERYRHLWLTQTVFSEEALALKRQEHAALVEVILARDAKTASAMMRSHLMTPVPIIAQIMHAEGIGAR"}}, "key": {"CsiR": {"target": "T1, CsiR (Pseudomonas putida, UniProt Q88IU1)", "T1 construct": "full-length, His6-tagged, purified from E. coli BL21(DE3) (pETDuet-CsiR); dimer", "T1 sequence (Q88IU1 1-231)": "B1 chain", "experiment": "fluorescence-based thermal shift (SYPRO Orange)", "type": "binding", "details": "100 µM ligand; 20 mM sodium phosphate, 150 mM NaCl, pH 7.4"}, "YnfM": {"target": "T2, YnfM (Escherichia coli, UniProt P43531)", "T2 construct": "native MFS exporter in living E. coli BL21(DE3) cells; ynfM knockout comparison with Glusor read-out", "T2 sequence (P43531 1-417)": "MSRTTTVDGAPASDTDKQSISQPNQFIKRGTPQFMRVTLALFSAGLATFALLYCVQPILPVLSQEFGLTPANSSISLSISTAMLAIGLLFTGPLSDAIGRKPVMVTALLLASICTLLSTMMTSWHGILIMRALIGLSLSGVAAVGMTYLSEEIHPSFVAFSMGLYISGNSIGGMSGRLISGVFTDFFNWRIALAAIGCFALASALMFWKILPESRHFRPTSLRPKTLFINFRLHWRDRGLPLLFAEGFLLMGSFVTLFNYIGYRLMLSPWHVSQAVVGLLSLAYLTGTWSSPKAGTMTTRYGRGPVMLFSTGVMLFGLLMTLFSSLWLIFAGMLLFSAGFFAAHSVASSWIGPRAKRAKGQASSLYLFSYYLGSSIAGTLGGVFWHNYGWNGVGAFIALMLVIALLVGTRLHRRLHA", "experiment": "efflux in knockout versus parent E. coli, intra- and extracellular Glusor fluorescence", "type": "cell-based", "details": "carbon starvation, 30 °C"}, "[1]": {"target": "ligand-binding domain of CsiR (CsiR-LBD) (P. putida KT2440)", "experiment": "SEC; gel filtration on Superdex 200 10/300 GL, 50 mM sodium phosphate buffer pH 7.2, 150 mM NaCl; mass standards aprotinin, ovalbumin, conalbumin, aldolase, ferritin"}, "[2]": {"target": "the molecule itself", "experiment": "SEC; gel filtration on Superdex 200 10/300 GL, 50 mM sodium phosphate buffer pH 7.2, 150 mM NaCl; mass standards aprotinin, ovalbumin, conalbumin, aldolase, ferritin"}}}
{"molecule": "O=C(O)CCCC(=O)O", "note": "[glutarate]", "values": [{"measurement": "ΔTm", "setting": "CsiR", "result": "only glutarate induced a significant increase in the melting temperature (Tm) of CsiR"}, {"measurement": "efflux in knockout versus parent E. coli, intra- and extracellular Glusor fluore", "setting": "YnfM", "result": "YnfM may be the only functional glutarate exporter in E. coli BL21(DE3)"}]}
{"molecule": "ligand-binding domain of CsiR (CsiR-LBD) (domain or fragment)", "values": [{"measurement": "stoichiometry N", "setting": "[1]", "result": 2}]}
{"molecule": "B1", "values": [{"measurement": "stoichiometry N", "setting": "[2]", "result": 2}]}
{"molecule": "B2", "values": [{"measurement": "stoichiometry N", "setting": "[2]", "result": 2}]}
